Source: patent publication US20070105096A1

Experiments:
[1] = target: orphan G-protein coupled receptor G10d (human) (UniProt O15218); experiment: cell-based or functional assay
[2] = target: type I angiotensin II receptor (AT1), bovine (bovine) (UniProt P25104); experiment: cell-based or functional assay
type I angiotensin II receptor (AT1), bovine (bovine), sequence (P25104 whole entry): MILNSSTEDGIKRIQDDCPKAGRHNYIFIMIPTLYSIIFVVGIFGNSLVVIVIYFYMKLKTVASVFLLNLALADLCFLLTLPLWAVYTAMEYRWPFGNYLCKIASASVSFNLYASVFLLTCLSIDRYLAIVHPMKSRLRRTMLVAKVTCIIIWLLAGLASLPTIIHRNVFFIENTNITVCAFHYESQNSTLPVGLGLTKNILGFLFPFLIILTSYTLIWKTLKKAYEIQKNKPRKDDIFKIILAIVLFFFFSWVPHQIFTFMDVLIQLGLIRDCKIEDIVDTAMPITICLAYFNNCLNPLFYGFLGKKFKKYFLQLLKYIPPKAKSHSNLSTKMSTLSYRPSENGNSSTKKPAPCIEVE

orphan G-protein coupled receptor G10d (human), sequence (O15218 whole entry): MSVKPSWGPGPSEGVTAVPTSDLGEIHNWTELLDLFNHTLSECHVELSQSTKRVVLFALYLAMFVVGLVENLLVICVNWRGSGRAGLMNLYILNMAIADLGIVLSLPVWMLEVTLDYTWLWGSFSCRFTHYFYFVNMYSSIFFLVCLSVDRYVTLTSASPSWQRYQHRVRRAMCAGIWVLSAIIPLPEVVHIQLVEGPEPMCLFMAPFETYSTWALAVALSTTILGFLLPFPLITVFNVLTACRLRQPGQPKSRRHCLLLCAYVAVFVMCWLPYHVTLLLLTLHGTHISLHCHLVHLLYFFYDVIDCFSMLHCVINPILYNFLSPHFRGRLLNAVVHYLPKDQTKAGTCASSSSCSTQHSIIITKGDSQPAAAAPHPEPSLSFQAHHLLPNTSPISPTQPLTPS

## adrenocorticotropic hormone (ACTH) (from UniProt P01189 138-176) (peptide)
[1]
  induction ratio of the reporter (Renilla reniformis luciferase, CRE), host GBCRC6 with pAGal9-G10d, 100 nmol/L of ACTH: 11 fold

## human angiotensin II (manufactured by Bachem) (from UniProt P01019 25-476) (peptide)
[2]
  firefly luciferase activity (CRE reporter), host GBCC13 with pAGal9-AT1, angiotensin II 100 nmol/L: 85 fold

## α-melanocyte-stimulating hormone (α-MSH) (from UniProt P01189 138-150) (peptide)
[1]
  induction ratio of the reporter (Renilla reniformis luciferase, CRE), host GBCRC6 with pAGal9-G10d, 100 µmol/L of α-MSH as printed: 10 fold
